Test results published in doi:10.1101/2024.08.08.606885.

Experiments:
Experiment in all cases: BLI; […]; 10x kinetics buffer, […]; global fit, 1:1 binding model; […]
[1] = target: SARS-CoV-2 Delta RBD (SARS-CoV-2) (UniProt P0DTC2)
[2] = target: SARS-CoV-2 BA.5 RBD (SARS-CoV-2) (UniProt P0DTC2)
[3] = target: SARS-CoV-2 BA.2.86 RBD (SARS-CoV-2) (UniProt P0DTC2)
[4] = target: SARS-CoV-2 BQ.1.1 RBD (SARS-CoV-2) (UniProt P0DTC2)
[5] = target: SARS-CoV-2 Wuhan-Hu-1 RBD (SARS-CoV-2) (UniProt P0DTC2)
[6] = target: SARS-CoV-2 BA.2.75.2 RBD (SARS-CoV-2) (UniProt P0DTC2)
[7] = target: SARS-CoV-2 BA.2.12.1 RBD (SARS-CoV-2) (UniProt P0DTC2)
[8] = target: SARS-CoV-2 XBB.1.5 RBD (SARS-CoV-2) (UniProt P0DTC2)

Q: How did the Kd [1] turn out when “TRI2-2 homotrimeric miniprotein inhibitor (designed binder)” was run?
A: 0.00114 nM

Q: And the koff [1]?
A: 2.95e-07 s⁻¹

Q: And the kon [1]?
A: 259000 M⁻¹ s⁻¹

Q: And the Kd [2]?
A: 0.0306 nM

Q: What about the koff [2] of the same substance?
A: 9.92e-06 s⁻¹

Q: What about the kon [2] of the same substance?
A: 325000 M⁻¹ s⁻¹

Q: What about the Kd [3] of the same substance?
A: 0.388 nM

Q: And the koff [3]?
A: 0.000131 s⁻¹

Q: And the kon [3]?
A: 339000 M⁻¹ s⁻¹

Q: What about the Kd [4] of the same substance?
A: 0.21 nM

Q: And the koff [4]?
A: 3.36e-05 s⁻¹

Q: And the kon [4]?
A: 160000 M⁻¹ s⁻¹

Q: And the Kd [5]?
A: 0.00121 nM

Q: And the koff [5]?
A: 3.46e-07 s⁻¹

Q: And the kon [5]?
A: 286000 M⁻¹ s⁻¹

Q: What about the Kd [6] of the same substance?
A: 0.542 nM

Q: What about the koff [6] of the same substance?
A: 8.93e-05 s⁻¹

Q: What about the kon [6] of the same substance?
A: 165000 M⁻¹ s⁻¹

Q: What about the Kd [7] of the same substance?
A: 0.851 nM

Q: What about the koff [7] of the same substance?
A: 0.000117 s⁻¹

Q: And the kon [7]?
A: 137000 M⁻¹ s⁻¹

Q: What about the Kd [8] of the same substance?
A: 0.658 nM

Q: What about the koff [8] of the same substance?
A: 0.000105 s⁻¹

Q: What about the kon [8] of the same substance?
A: 160000 M⁻¹ s⁻¹
